The source of these data is patent US6344321, “Nucleic acid ligands which bind to hepatocyte growth factor/scatter factor (HGF/SF) or its receptor c-met” (Gilead Sciences, Inc.).

Substitutions are numbered along the chain they refer to.

First the molecules themselves.
B1: 11-153 (ssRNA)
RNA: GGGAGGACGAUGCGGACAGGUAGUCUUCUAUAGCACUUCCUCCCCCAGACGACUCGCCCGA
modifications: 2'-F pyrimidines
B2: 11-8 (ssRNA)
RNA: GGGAGGACGAUGCGGUCAGUAUGACUUUUAUAGCACGUUCGCCCCAGACGACUCGCCCGA
modifications: 2'-F pyrimidines
B3: 11-157 (ssRNA)
RNA: B2 RNA with U20A, U29C, U38C, C40U, G41U
modifications: 2'-F pyrimidines
B4: 11-163 (ssRNA)
RNA: GGGAGGACGAUGCGGGCUUGAGUCUUUGAUCGUCUUAUCCCUCGUCAGACGACUCGCCCGA
modifications: 2'-F pyrimidines
B5: 8-101 (ssRNA)
RNA: GGGAGGACGAUGCGGGUGACUCAAAAUGGUGAUCCUCGAUUUCCGCCAGACGACUCGCCCGA
modifications: 2'-F pyrimidines
B6: 8-125 (ssRNA)
RNA: GGGAGGACGAUGCGGUGUGAACCUGUUUAUGUCAUCUUUUGUCGUCAGACGACUCGCCCGA
modifications: 2'-F pyrimidines
B7: 8-126 (ssRNA)
RNA: GGGAGGACGAUGCGGGUGACUCAAAAUGGUGAUCCUCGUUUCCGCCAGACGACUCGCCCGA
modifications: 2'-F pyrimidines
B8: 11-110 (ssRNA)
RNA: GGGAGGACGAUGCGGUGAUUACCUAUUUAUGUCAUGCUCCUCCCCCAGACGACUCGCCCGA
modifications: 2'-F pyrimidines
B9: 8-112 (ssRNA)
RNA: GGGAGGACGAUGCGGUCCCGAAUUUAAGUGCGUUUCCUCCGCGUCCAGACGACUCGCCCGA
modifications: 2'-F pyrimidines
B10: 8-123 (ssRNA)
RNA: B9 RNA with A22G, A26G, U29G, C37U, C40U, G41U
modifications: 2'-F pyrimidines
B11: 8-154 (ssRNA)
RNA: B9 RNA with G20A, A22G, U23A, A26C, U29G, C37U, G41U
modifications: 2'-F pyrimidines
B12: 11-223 (ssRNA)
RNA: GGGAGGACGAUGCGGUCAGUAUGGCUUCUAUAGCUCGUUCCUCGGCAGACGACUCGCCCGA
modifications: 2'-F pyrimidines
B13: 8-118 (ssRNA)
RNA: GGGAGGACGAUGCGGGGCGACUUUCCUCCAAUUCUCACCUCUGCACAGACGACUCGCCCGA
modifications: 2'-F pyrimidines
B14: 11-212 (ssRNA)
RNA: GGGAGGACGAUGCGGGUUUGAGUUAAACAUCGGUUUUCUCCUGCAGACGACUCGCCCGA
modifications: 2'-F pyrimidines
B15: 11-9 (ssRNA)
RNA: GGGAGGACGAUGCGGCGUGAGCCUGUUUAUGACCUCGUCCAUGGCCAGACGACUCGCCCGA
modifications: 2'-F pyrimidines
B16: 11-217 (ssRNA)
RNA: B15 RNA with G25U, U26C, U27C, U28A, C34G, A41U
modifications: 2'-F pyrimidines
B17: 11-158 (ssRNA)
RNA: B15 RNA with U18A, G19U, G25A, A41C, U42C, G44U, C45G
modifications: 2'-F pyrimidines
B18: 11-59 (ssRNA)
RNA: GGGAGGACGAUGCGGCGUGAGCCUGUAUAUGUCAUUGUUCUCCGGCAGACGACUCGCCCGA
modifications: 2'-F pyrimidines
B19: 11-76 (ssRNA)
RNA: GGGAGGACGAUGCGGUCAGCGGCGCGAGCCUGUUUAUGUCUGCUGCAGACGACUCGCCCGA
modifications: 2'-F pyrimidines
B20: 8-3 (ssRNA)
RNA: GGGAGGACGAUGCGGAUCCCGCGACCAGGGCGUUUCUUCCUCGUCCCAGACGACUCGCCCGA
modifications: 2'-F pyrimidines
B21: 11-65 (ssRNA)
RNA: GGGAGGACGAUGCGGUGAUAACCUGUUUAUGCCAUCGUGCUGGGCCAGACGACUCGCCCGA
modifications: 2'-F pyrimidines
B22: 8-122 (ssRNA)
RNA: GGGAGGACGAUGCGGCGGUGUGAACCUGUUUAUGUCCGCGUACCCCAGACGACUCGCCCGA
modifications: 2'-F pyrimidines
B23: 8-103 (ssRNA)
RNA: GGGAGGACGAUGCGGGCCGAAAAUUCGUCGACAUCUCCCUGUCUGCAGACGACUCGCCCGA
modifications: 2'-F pyrimidines
B24: 8-104 (ssRNA)
RNA: GGGAGGACGAUGCGGGCGACUCAAUCUGAAUCGUCUUGUCCCGUGCAGACGACUCGCCCGA
modifications: 2'-F pyrimidines
B25: 8-155 (ssRNA)
RNA: GGGAGGACGAUGCGGUGUGAACCUAUUUAUGCCAUCUCGAGUGCCCAGACGACUCGCCCGA
modifications: 2'-F pyrimidines
B26: 11-208 (ssRNA)
RNA: GGGAGGACGAUGCGGGUUUGAGUGACGAUCGUCUUGUCCCAUGUGCAGACGACUCGCCCGA
modifications: 2'-F pyrimidines
B27: 11-104 (ssRNA)
RNA: GGGAGGACGAUGCGGGUUUGAGUGAUGUCGUCUUGUCCCGCCUGCCAGACGACUCGCCCGA
modifications: 2'-F pyrimidines
B28: 8-17 (ssRNA)
RNA: GGGAGGACGAUGCGGGCGGCUCGAUGUCGUCUUAUCCCUUUGCCCCAGACGACUCGCCCGA
modifications: 2'-F pyrimidines
B29: 8-158 (ssRNA)
RNA: B28 RNA with G16C, U35C
modifications: 2'-F pyrimidines
B30: 11-222 (ssRNA)
RNA: GGGAGGACGAUGCGGACAUAAGUCUUCUAUAGCUCGUCCUUUGUGCAGACGACUCGCCCGA
modifications: 2'-F pyrimidines
B31: 8-165 (ssRNA)
RNA: GGGAGGACGAUGCGGCGAGAGCCUAUUUAUGUCAUCAUGCCUGUGCAGACGACUCGCCCGA
modifications: 2'-F pyrimidines
B32: 8-171 (ssRNA)
RNA: B31 RNA with A18G, A25U, C40U
modifications: 2'-F pyrimidines
B33: 11-103 (ssRNA)
RNA: GGGAGGACGAUGCGGUGAUUACCUAUUAUGUCUCGCCCUCUCCAGACGACUCGCCCGA
modifications: 2'-F pyrimidines
B34: 8-119 (ssRNA)
RNA: GGGAGGACGAUGCGGGCCAUUCGAUCGAUUCUCCGCCGGAUCGUGCAGACGACUCGCCCGA
modifications: 2'-F pyrimidines

HGF (hepatocyte growth factor/scatter factor), sequence (P14210 32-494, chain 1 of 2): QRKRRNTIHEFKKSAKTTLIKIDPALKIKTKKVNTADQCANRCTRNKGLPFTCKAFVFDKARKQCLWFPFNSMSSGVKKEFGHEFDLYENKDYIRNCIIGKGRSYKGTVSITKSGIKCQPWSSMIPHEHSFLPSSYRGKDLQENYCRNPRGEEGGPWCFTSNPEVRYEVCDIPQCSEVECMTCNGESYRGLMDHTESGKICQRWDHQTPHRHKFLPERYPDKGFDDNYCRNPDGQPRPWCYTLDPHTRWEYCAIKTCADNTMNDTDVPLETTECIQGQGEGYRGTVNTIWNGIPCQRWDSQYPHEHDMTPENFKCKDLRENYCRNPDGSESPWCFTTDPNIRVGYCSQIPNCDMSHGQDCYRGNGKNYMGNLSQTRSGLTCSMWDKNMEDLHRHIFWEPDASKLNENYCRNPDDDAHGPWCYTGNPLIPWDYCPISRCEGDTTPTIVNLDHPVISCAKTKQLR
HGF (hepatocyte growth factor/scatter factor), sequence (P14210 495-728, chain 2 of 2): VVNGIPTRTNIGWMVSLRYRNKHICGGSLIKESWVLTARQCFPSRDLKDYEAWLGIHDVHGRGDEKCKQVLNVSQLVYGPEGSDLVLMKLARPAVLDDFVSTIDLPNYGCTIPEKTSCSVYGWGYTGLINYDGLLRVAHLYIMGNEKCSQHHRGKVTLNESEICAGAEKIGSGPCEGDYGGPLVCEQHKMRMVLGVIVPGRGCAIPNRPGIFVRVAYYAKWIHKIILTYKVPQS

This series concerns the target HGF (hepatocyte growth factor/scatter factor) (UniProt P14210;P14210 P14210:32-494,P14210:495-728). Put plainly: filter; HBSMC, 37C. Conditions: tags: R&D Systems. The method, then:
In binding reactions, RNA concentrations were kept as low as possible—between 1 and 20 pM—to ensure equilibrium in conditions of protein excess. Oligonucleotides were incubated for 15 minutes at 37° C. with varying amounts of the protein in 43 µl of the binding buffer. Thirty-two microliters of each binding mixture placed on pre-wet 0.45 µm nitrocellulose filters under suction. Each well was immediately washed with 0.5 ml binding buffer. The amount of radioactivity retained on the filters was quantitated by imaging. The radioactivity that bound to filters in the absence of protein was used for background correction. The percentage of input oligonucleotide retained on each filter spot was plotted against the corresponding log protein concentration. The nonlinear least square method was used to obtain the dissociation constant (K_d; reference Jellinek, Lynott et al. 1993, Proc. Natl. Acad. Sci. USA. 90:11227–31).
For B1, the Kd – broadly, the concentration at which binding is half-saturated – turned out to be 0.19 nM.
In turn, B2 yielded a Kd of 0.15 nM.
To B3 belongs 0.26 nM; to B4, 0.082 nM.
To B5 belongs 0.095 nM.
As for B6, the figure is 0.075 nM; as for B7, 0.099 nM.
Regarding B8, binding was characterised by a dissociation constant (Kd) of 0.086 nM.
Molecule B9 yielded a Kd of 0.13 nM. Compared with the last molecule, the Kd is about 1.5-fold higher.
The molecule B10 yielded a Kd of 0.21 nM. Compared with the last molecule, the Kd is about 1.6-fold higher.
Molecule B11 registered a Kd of 0.12 nM.
As for B12, the figure is 0.12 nM.
To B13 belongs 0.16 nM; to B14, 0.075 nM.
In the case of B15, the Kd is 0.074 nM.
As for B16, the figure is 0.071 nM; as for B17, 0.17 nM.
Molecule B18 had a Kd of 0.11 nM.
To B19 belongs 0.076 nM.
As for B20, the figure is 0.13 nM; as for B21, 0.11 nM; as for B22, 0.097 nM.
As for B23, the figure is 0.12 nM; as for B24, 0.05 nM.
Turning to B25, binding was characterised by a dissociation constant (Kd) of 0.093 nM.
For the molecule B26, the Kd is 0.06 nM. Against the preceding molecule, the Kd is about 1.6-fold lower.
To B27 belongs 0.091 nM.
As for B28, the figure is 0.095 nM; as for B29, 0.31 nM.
To B30 belongs 0.077 nM; to B31, 0.1 nM; to B32, 0.12 nM.
As to B33, the dissociation constant (Kd) turned out to be 0.2 nM.
In turn, B34 had a Kd of 0.11 nM. Compared with the last molecule, the Kd is about 1.8-fold lower.
